Target: SM α-actin (Homo sapiens, UniProt P62736)
Test: TIRF microscopy polymerization assay

Kd: 3.3 µM
B1: MRTF-A (protein)
chain: MPPLKSPAAFHEQRRSLERARTEDYLKRKIRSRPERSELVRMHILEETSAEPSLQAKQLKLKRARLADDLNEKIAQRPGPMELVEKNILPVESSLKEAIIVGQVNYPKVADSSSFDEDSSDALSPEQPASHESQGSVPSPLEARVSEPLLSATSASPTQVVSQLPMGRDSREMLFLAEQPPLPPPPLLPPSLTNGTTIPTAKSTPTLIKQSQPKSASEKSQRSKKAKELKPKVKKLKYHQYIPPDQKQDRGAPPMDSSYAKILQQQQLFLQLQILNQQQQQHHNYQAILPAPPKSAGEALGSSGTPPVRSLSTTNSSSSSGAPGPCGLARQNSTSLTGKPGALPANLDDMKVAELKQELKLRSLPVSGTKTELIERLRAYQDQISPVPGAPKAPAATSILHKAGEVVVAFPAARLSTGPALVAAGLAPAEVVVATVASSGVVKFGSTGSTPPVSPTPSERSLLSTGDENSTPGDTFGEMVTSPLTQLTLQASPLQILVKEEGPRAGSCCLSPGGRAELEGRDKDQMLQEKDKQIEALTRMLRQKQQLVERLKLQLEQEKRAQQPAPAPAPLGTPVKQENSFSSCQLSQQPLGPAHPFNPSLAAPATNHIDPCAVAPGPPSVVVKQEALQPEPEPVPAPQLLLGPQGPSLIKGVAPPTLITDSTGTHLVLTVTNKNADSPGLSSGSPQQPSSQPGSPAPAPSAQMDLEHPLQPLFGTPTSLLKKEPPGYEEAMSQQPKQQENGSSSQQMDDLFDILIQSGEISADFKEPPSLPGKEKPSPKTVCGSPLAAQPSPSAELPQAAPPPPGSPSLPGRLEDFLESSTGLPLLTSGHDGPEPLSLIDDLHSQMLSSTAILDHPPSPMDTSELHFVPEPSSTMGLDLADGHLDSMDWLELSSGGPVLSLAPLSTTAPSLFSTDFLDGHDLQLHWDSCL

From article PMC8633019 (2021)
